Numbering of substitutions follows the chain as printed.
B1: PS3B1355 (bispecific antibody, human IgG1, lambda, L234A L235A)
heavy 1: QVQLQQSGPRLVRPSQTLSLTCAISGDSVFNNNAAWSWIRQSPSRGLEWLGRTYYRSKWLYDYAVSVKSRITVNPDTSRNQFTLQLNSVTPEDTALYYCARGYSSSFDYWGQGTLVTVSSASTKGPSVFPLAPSSKSTSGGTAALGCLVKDYFPEPVTVSWNSGALTSGVHTFPAVLQSSGLYSLSSVVTVPSSSLGTQTYICNVNHKPSNTKVDKKVEPKSCDKTHTCPPCPAPEAAGGPSVFLFPPKPKDTLMISRTPEVTCVVVSVSHEDPEVKFNWYVDGVEVHNAKTKPREEQYNSTYRVVSVLTVLHQDWLNGKEYKCKVSNKALPAPIEKTISKAKGQPREPQVYTLPPSREEMTKNQVSLTCLVKGFYPSDIAVEWESNGQPENNYKTTPPVLDSDGSFLLYSKLTVDKSRWQQGNVFSCSVMHEALHNHYTQKSLSLSPGK
light 1: QSALTQPASVSGSPGQSITISCTGTSSNIGTYKFVSWYQQHPDKAPKVLLYEVSKRPSGVSSRFSGSKSGNTASLTISGLQAEDQADYHCVSYAGSGTLLFGGGTKLTVLGQPKAAPSVTLFPPSSEELQANKATLVCLISDFYPGAVTVAWKADSSPVKAGVETTTPSKQSNNKYAASSYLSLTPEQWKSHRSYSCQVTHEGSTVEKTVAPTECS
heavy 2: EVQLVESGGGLVQPGGSLRLSCAASGFTFSSYAMSWVRQAPGKGLEWVSAISGGSGSTYYADSVKGRFTISRDNSKNTLYLQMNSLRAEDSAVYYCAKDGVGATPYYFDYWGQGTLVTVSSASTKGPSVFPLAPSSKSTSGGTAALGCLVKDYFPEPVTVSWNSGALTSGVHTFPAVLQSSGLYSLSSVVTVPSSSLGTQTYICNVNHKPSNTKVDKKVEPKSCDKTHTCPPCPAPEAAGGPSVFLFPPKPKDTLMISRTPEVTCVVVSVSHEDPEVKFNWYVDGVEVHNAKTKPREEQYNSTYRVVSVLTVLHQDWLNGKEYKCKVSNKALPAPIEKTISKAKGQPREPQVYTLPPSREEMTKNQVSLTCLVKGFYPSDIAVEWESNGQPENNYKTTPPVLDSDGSFFLYSRLTVDKSRWQQGNVFSCSVMHEALHNHYTQKSLSLSPGK
light 2: QSVLTQPPSVSAAPGQKVTISCSGSSSNIGINYVSWYQQLPGTAPKLLIYDNNKRPSGIPDRFSGSKSGTSATLGITGLQTGDEADYYCGTWDSSLSAVVFGGGTKLTVLGQPKAAPSVTLFPPSSEELQANKATLVCLISDFYPGAVTVAWKADSSPVKAGVETTTPSKQSNNKYAASSYLSLTPEQWKSHRSYSCQVTHEGSTVEKTVAPTECS
B2: PS3B1358 (bispecific antibody, human IgG1, lambda, L234A L235A)
heavy 1: B1 heavy 1 with R10G, R13K, V73I, R79K, T83S, L96V
light 1: B1 light 1 with D43G, L49M, L50I, S62N, Q85E, H89Y
heavy 2: B1 heavy 2
light 2: B1 light 2

Molecular target: Human PSMA on prostate cancer cell lines (C4-2B, 22RV1) (human, UniProt Q04609 1-750)
Test: cell-based or functional assay

Sequence of Human PSMA on prostate cancer cell lines (C4-2B, 22RV1) (Q04609 whole entry): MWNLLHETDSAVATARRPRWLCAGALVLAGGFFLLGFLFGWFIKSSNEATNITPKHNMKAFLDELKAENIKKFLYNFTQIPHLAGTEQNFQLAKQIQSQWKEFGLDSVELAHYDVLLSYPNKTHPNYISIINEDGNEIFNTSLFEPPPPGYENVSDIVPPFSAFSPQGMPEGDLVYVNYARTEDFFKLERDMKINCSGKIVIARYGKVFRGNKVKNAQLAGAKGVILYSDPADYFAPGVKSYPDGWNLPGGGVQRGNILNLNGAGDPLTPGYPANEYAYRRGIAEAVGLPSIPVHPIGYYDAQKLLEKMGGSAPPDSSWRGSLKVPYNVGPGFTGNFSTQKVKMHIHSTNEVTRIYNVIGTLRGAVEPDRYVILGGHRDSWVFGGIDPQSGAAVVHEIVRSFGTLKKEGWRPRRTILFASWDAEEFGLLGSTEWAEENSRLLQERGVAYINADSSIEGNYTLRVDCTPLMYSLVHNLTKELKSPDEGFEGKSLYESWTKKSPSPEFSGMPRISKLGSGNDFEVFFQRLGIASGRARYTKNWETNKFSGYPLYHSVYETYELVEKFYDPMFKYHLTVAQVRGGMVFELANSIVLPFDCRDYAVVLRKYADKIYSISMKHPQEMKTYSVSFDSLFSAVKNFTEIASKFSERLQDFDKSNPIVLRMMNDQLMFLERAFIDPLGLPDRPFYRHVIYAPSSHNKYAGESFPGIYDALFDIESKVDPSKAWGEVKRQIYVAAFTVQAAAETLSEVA

Binder	Cytotoxicity (C4-2B cells, 3:1 E:T ratio, 5 Day) at 0.3 nM	Cytotoxicity (C4-2B cells, 3:1 E:T ratio, 5 Day) at 1.1 nM	Cytotoxicity (C4-2B cells, 3:1 E:T ratio, 5 Day) at 3.3 nM	Cytotoxicity (C4-2B cells, 3:1 E:T ratio, 5 Day) at 10 nM	Cytotoxicity (C4-2B cells, 3:1 E:T ratio, 5 Day) at 30 nM
B1	92%	97%	96%	95%	94%
B2	68%	90%	93%	94%	88%

— patent US20240059789A1 (Janssen / Centocor, published 2024)
